# Measurements from paper PMC6800434, “Assessment of glucagon receptor occupancy by Positron Emission Tomography in non-human primates” (Scientific Reports, 2019).
# “And” between values parts separate entries of the source, which are not always exact repeats. Equal values may be shown once. Positions of bridges follow the written chain, without caps; N, C: chain ends. Non-standard residues stand in square brackets, D forms with d. Residues, ends and D or L forms follow the SMILES beside them. *: point of attachment. DO3A(CH2CH2SO2CH2CH2) = O=C(O)CN1CCN(CCS(=O)(=O)CC*)CCN(CC(=O)O)CCN(CC(=O)O)CC1; Ala(4-thiazolyl) = N[C@@H](Cc1cscn1)C(=O)O
# Columns and labels:
# rat spleen sections = test: In vitro autoradiography of spleen sections; type: binding, Sprague Dawley rat; details: 10 µM GCG or 1 µm DO3A-S01-GCG precursor, 60 min RT, n = 3
# Procedure: (§1) Splenic binding of [^68Ga]Ga-DO3A-S01-GCG was previously observed in rat in vivo[5]. This assay was performed to elucidate if splenic binding in human and NHP in vivo would be expected.
# (§2) Spleen tissue was collected post-mortem from the NHP and Sprague Dawley rat. Biopsies from donor human spleen were obtained from Uppsala Biobank (sample collection 827) and approved by local ethical review board (Drn 2016/465).
# (§3) The splenic biopsies were processed to 10 µm frozen tissue sections by a cryotome. The sections were pre-incubated in phosphate-buffered saline (PBS) (pH 7.4, 1% Bovine Serum Albumin (BSA)) for 10 min at room temperature (RT). Then, the sections were incubated with 5 nM [^68Ga]Ga-DO3A-S01-GCG in […] PBS (pH 7.4, 1% BSA), either alone or in the presence of 10 µM GCG or 1 µm DO3A-S01-GCG precursor for 60 min at RT.
# (§4) After incubation, the sections were washed three times, first with assay buffer (PBS pH 7.4 1% BSA) and then twice with PBS for 1 minute. Sections were carefully dried at 37 °C and then exposed against a digital phosphorimager plate, together with a 20 µl reference from the buffer calibrated against a gamma-counter to enable quantification to fmol bound radioligand/mm^3. The phosphorimager plates were scanned using a Cyclone Plus Phosphor imager (Perkin Elmer) at 600 dpi, and the resulting autoradiograms analysed by ImageJ (NIH, Bethesda). […]
# NHP spleen sections = test: In vitro autoradiography of spleen sections; type: binding; details: 10 µM GCG or 1 µm DO3A-S01-GCG precursor, 60 min RT, n = 3
# Procedure: as §1, §2, §3, §4
# human spleen sections = test: In vitro autoradiography of spleen sections; type: binding; details: 10 µM GCG or 1 µm DO3A-S01-GCG precursor, 60 min RT, n = 3
# Procedure: as §1, §2, §3, §4
# [1] = In vivo metabolic stability in venous plasma (radio-HPLC); parameters: species or system cynomolgus monkeys; details: NHP in vivo, n = 3
# Procedure: For NHP 5–7, venous blood samples were taken at 5, 30 and 60 min for assessment of in vivo metabolic stability of [^68Ga]Ga-DO3A-S01-GCG, using HPLC methods described below. The percentage of intact [^68Ga]Ga-DO3A-S01-GCG was plotted against time from administration and fitted to a mono-exponential function.
# Blood samples were centrifuged at 4000 rpm for 2 minutes at 4 °C (Beckman Allegra X-22R Centrifuge, Palo Alto, USA). From the plasma, 0.5 ml was taken and an equal volume of acetonitrile was added to precipitate the proteins. The mixture was centrifuged at 13200 rpm at 4 °C for 1 min (Eppendorf 5415 R centrifuge, Eppendorf AG, Hamburg, Germany). The supernatant was filtered through a 0.2 μm nylon membrane (Corning Incorporated, Corning, NY, USA) by centrifugation at 13200 rpm at 4 °C for 1 min. 500 µl of the filtered supernatant was diluted with 1500 µl H2O; thereafter, 30 µl of 0.01 mM unlabelled DO3A-S01-GCG was added to the mixture. The sample preparation recovery was determined by measuring the radioactivity in the plasma, filters and pellet.
# HPLC analysis was performed using a binary pump system (Gilson, Middleton, USA). The sample (1.8 ml) was injected using an automated solid phase extraction controller (ASPEC Gilson) connected to a dilutor (Gilson). The separation was performed on an Xbridge Prep BEH130 C18 (peptide separation technology) 250 mm × 10 mm, 5 µm with a 10 × 10 mm C18 security guard from the same supplier. The HPLC system was operated at a flow rate of 6 ml/min. The mobile phase consisted of 0.1% TFA in MilliQ: 0.1% TFA in Acetonitrile. Gradient elution mode was used for the separation (Gradient: 0–7 min: 5–70%, 7–12 min: 70%, 12–13 min: 70–5%, 13–15 min: 5%).
# A second method was developed with a lesser gradient, to determine if any metabolites were co-eluting with the DO3A-S01-GCG peak. A UV detector (Gilson) was used to detect unlabelled DO3A-S01-GCG at 220 nm. […] Six fractions were collected, and the radioactivity in the fractions was measured by a well-type scintillation counter. […]
# [2] = Human predicted radiation dosimetry extrapolated from NHP biodistribution (OLINDA/EXM 1.1)
# Procedure: The predicted dosimetry of [^68Ga]Ga-DO3A-S01-GCG in human males was estimated based on the in vivo biodistribution in NHPs as captured by dynamic PET examinations. The baseline PET examinations in NHP 2–7 (n=6) were averaged for the dosimetry analysis. […] However, the uptake in the brain in NHP is likely negligible based on observations in rat (5) as well as a whole-body PET/CT examination performed on NHP1 90–120 minutes post [^68Ga]Ga-DO3A-S01-GCG administration.
# The dosimetry calculations were performed as described previously for [^68Ga]Ga-DO3A-VS-Cys^40-Exendin4[4] and [^68Ga]Ga-DO3A-S01-GCG in rat[5].
# In brief, dynamic NHP organ uptake as measured by PET and expressed as SUV was normalised to that of human organs (using tissue weights of whole-body adult reference phantoms). The decay-corrected and normalized SUVs were back-corrected to count rates to calculate the actual radiation burden in each tissue. The tissue residence times (MBq-h/MBq) were assessed by trapezoidal approximation of the un-decay corrected human SUV biodistribution data. The tissue washout from the last time point (90 minutes) until infinity was estimated by a single mono-exponential fit.
# The estimation of the absorbed dose was performed by the OLINDA/EXM 1.1 software, where the calculations were based on the adult reference male or female phantoms to obtain the absorbed dose estimate in humans (ICRP60). The organ specific doses are reported as mGy/MBq (effective dose as mSv/MBq). The amount of MBq that can be safely administered annually (MBq/year) was calculated for each organ as well as the effective dose, by dividing the limiting dose (10 mSv/year for the effective dose, 150 mGy/year for all tissues except for red marrow with 50 mGy/year) by the dose (mGy/MBq or mSv/MBq).
# [3] = extrapolated from NHP 2-7 baseline PET (n = 6)
Blocking of [68Ga]Ga-DO3A-S01-GCG binding in rat spleen sections by co-incubation (rat spleen sections),Effect of co-incubation on [68Ga]Ga-DO3A-S01-GCG binding in NHP spleen sections (NHP spleen sections),Effect of co-incubation on [68Ga]Ga-DO3A-S01-GCG binding in human spleen sections (human spleen sections),Compound,Intact radioligand in venous plasma ([1]; 5 minutes after administration) [%],Intact radioligand in venous plasma ([1]; 30 minutes after administration) [%],Intact radioligand in venous plasma ([1]; 60 minutes after administration) [%],"Human predicted absorbed dose, heart wall (myocardium) [2, 3] [mGy/MBq]","Human predicted absorbed dose, kidneys [2, 3] [mGy/MBq]","Human predicted absorbed dose, liver [2, 3] [mGy/MBq]","Human predicted absorbed dose, red marrow [2, 3] [mGy/MBq]","Human predicted effective dose [2, 3] [µSv/MBq]","Annual limit of administered radioactivity, effective dose limiting ([2]; limit 10 mSv/year) [MBq]",Annual exposure limit from red marrow absorbed dose ([2]; limit 50 mGy/year) [MBq],Annual administration allowed by critical organ kidney ([2]; limit 150 mGy/year)
could be blocked,not affected,not affected,glucagon,–,–,–,–,–,–,–,–,–,–,–
–,–,–,"CC[C@H](C)[C@H](NC(=O)[C@H](Cc1ccccc1)NC(=O)[C@H](CCC(=O)O)NC(=O)[C@@H]1CCCCNC(=O)CC[C@H](NC(=O)[C@H](CC(=O)O)NC(=O)[C@H](CC(C)C)NC(=O)[C@H](CCC(N)=O)NC(=O)[C@H](CCCCN)NC(=O)[C@H](CO)NC(=O)[C@H](Cc2ccc(O)cc2)NC(=O)[C@H](CC(=O)O)NC(=O)[C@H](CO)NC(=O)[C@@H](NC(=O)[C@H](Cc2ccccc2)NC(=O)[C@@H](NC(=O)CNC(=O)[C@H](CCC(N)=O)NC(=O)[C@@H](CO)NC(=O)[C@@H](N)Cc2cscn2)[C@@H](C)O)[C@@H](C)O)C(=O)N[C@@H](CCC(N)=O)C(=O)N[C@@H](CCCNC(=N)N)C(=O)N[C@@H](C)C(=O)N1)C(=O)N[C@@H](CCC(=O)O)C(=O)N[C@@H](Cc1c[nH]c2ccccc12)C(=O)N[C@@H](CC(C)C)C(=O)N[C@@H](CC(C)C)C(=O)N[C@@H](C)C(=O)N[C@H](C(=O)NCC(=O)N1CCC[C@H]1C(=O)N[C@@H](CCC(=O)O)C(=O)N[C@@H](CO)C(=O)NCC(=O)N[C@@H](C)C(=O)N1CCC[C@H]1C(=O)N1CCC[C@H]1C(=O)N1CCC[C@H]1C(=O)N[C@@H](CO)C(=O)N[C@@H](CSCCS(=O)(=O)CCN1CCN(CC(=O)O)CCN(CC(=O)O)CCN(CC(=O)O)CC1)C(N)=O)[C@@H](C)O [[^68Ga]Ga-DO3A-S01-GCG, metal not drawn] (H-[Ala(4-thiazolyl)][dS]QGTFTSDYSKQLDEQRAKEFIEWLLATGPESGAPPPSC(DO3A(CH2CH2SO2CH2CH2))-NH2; lactam 16-20)",95.9 ± 1.2,89.0 ± 2.7,80.3 ± 3.3,0.10,0.29,0.049,0.039,20.6,485,> 1000,519 MBq and > 500 MBq
